First the molecules themselves.
B1: THAP1; numbered along this chain (parent)
chain: MVQSCSAYGCKNRYDKDKPVSFHKFPLTRPSLCKEWEAAVRRKNFKPTKYSSICSEHFTPDCFKRECNNKLLKENAVPTIFLCTEPHDKKEDLLEPQEQLPPPPLPPPVSQVDAAIGLLMPPLQTPVNLSVFCDHNYTVEDTMHQRKRIHQLEQQVEKLRKKLKTAQQRCRRQERQLEKLKEVVHFQKEKDDVSERGYVILPNDYFEIVEVPA

Here are results for 14 variants from the supplement of paper PMC11811203.

The variants in the series derive from B1. In words: THAP1 transcriptional activity (GFP+/GFP- enrichment relative to wild-type constructs) (ratio to WT); higher = more THAP1 activity (PSMB5 reporter activation). As to conditions: with PSMB5 promoter-GFP reporter. In a few lines:
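A site-saturation library of human THAP1 (residues 2–213, each changed to all 20 amino acids) was transduced by lentivirus at MOI ~0.3, in duplicate, into THAP1-knockout HEK-293T cells carrying mClover3 knocked in at endogenous PSMB5. After five days, BFP+ cells were sorted into GFP-dim and GFP-bright bins, and variants were counted by Illumina sequencing of genomic DNA amplicons. Activity is the replicate-mean bright/dim read fold change divided by the mean of wild-type synonymous constructs.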
For MVQSCSAYGCKNRYDKDKPVSFHKFPLTRPSLCKEWEAAVRRKNFKPTKYSSICSEHFTPDCFKRECNNKLLKENAVPTIFLCTEPHDKKEDLLEPQEQLPPPPLPPPVSQVDAAIGLLMPPLQTPVNLSVFCDHNYTVEDTMHQRKRIHQLEQQVEKLRCKLKTAQQRCRRQERQLEKLKEVVHFQKEKDDVSERGYVILPNDYFEIVEVPA [K161C], the THAP1 transcriptional activity stood at 0.37.

As for MVQSCSAYGCKNRYDKDKPVSFHKFPLTRPSLCKEWEAAVRRKNFKPTKYSSICSEHFTPDCFKRECNNKLLKENAVPTIFLCTEPHDKKEDLLEPQEQLPPPPLPPPVSQVDAAIGLLMPPLQTPVNLSVFCDHNYTVEDTMHQRKRIHQLEQQVEKLRKKLKTAQQRCRRQERQLEKNKEVVHFQKEKDDVSERGYVILPNDYFEIVEVPA [L180N], the THAP1 transcriptional activity stood at 0.473.

As to MVQSCSAYGCKNRYDKDKPVSFHKFPLTRPSLCKEWEAAVRRKNFKPTKYSSICSEHFTPDCFKRECNNKLLKENAVPTIFLCTEPHDKKEDLLEPQEQLPPPPLPPPVSQVDAAIGLLMPPLQTPVNLSVFCDHNYTVEDTMHQRKRIHQLEQSVEKLRKKLKTAQQRCRRQERQLEKLKEVVHFQKEKDDVSERGYVILPNDYFEIVEVPA [Q155S], the THAP1 transcriptional activity was 0.563.

For MVQSCSAYGCKNRYDKDKPVSFHKFPLTRPSLCKEWEAAVRRKNFKPTKYSSICSEHFTPDCFKRECNNKLLKENAVPTIFLCTEPHDKKEDLLEPQEQLPPPPLPPPVSQVDAAIGLLMPPLQTPVNLSVFCDHNYTVEDTMHQRKRIHQLEQTVEKLRKKLKTAQQRCRRQERQLEKLKEVVHFQKEKDDVSERGYVILPNDYFEIVEVPA [Q155T], the THAP1 transcriptional activity worked out at 0.609.

MVQSCSAYGCKNRYDKDKPVSFHKFPLTSPSLCKEWEAAVRRKNFKPTKYSSICSEHFTPDCFKRECNNKLLKENAVPTIFLCTEPHDKKEDLLEPQEQLPPPPLPPPVSQVDAAIGLLMPPLQTPVNLSVFCDHNYTVEDTMHQRKRIHQLEQQVEKLRKKLKTAQQRCRRQERQLEKLKEVVHFQKEKDDVSERGYVILPNDYFEIVEVPA [R29S]: the THAP1 transcriptional activity was 0.134.

For the variant MVQSCSAYGCKNRYDKDKPVSFHKFPLTRPSLCKEWEAAVRRKNFKPTKYSSICSEHFTPDCFKRECNNKLLKENAVPTIFLCTEPHDKKEDLLEPQEQMPPPPLPPPVSQVDAAIGLLMPPLQTPVNLSVFCDHNYTVEDTMHQRKRIHQLEQQVEKLRKKLKTAQQRCRRQERQLEKLKEVVHFQKEKDDVSERGYVILPNDYFEIVEVPA [L100M], the THAP1 transcriptional activity was 2.37.

Regarding MVQSCSAYGCKNRYDKDKPVSFHKFPLTRPSLCKEWEAAVRRKNFKPTKYSSICSEHFTPDCFKRECNNKLLKENAVPTIFLCTEPHDKKEDLLEPQEQLPPPPLPPPVSQVDAAIGLLMPPLQTPVNLSVFCDHNYTVEDTMHQRKRIHQLEQQVEKLRKKLKTAQQRCRRQERQLEKLKEVVHFQKEKDDVSERGYVIVPNDYFEIVEVPA [L201V], the THAP1 transcriptional activity amounted to 0.62.

MVQSCSAYGCKNRYDKDKPVSFHKFPLTRPSLCKEWEAAVRRKNFKPTKYSSICSEHFTPDCFKRECNNKLLKENAVPTIFLCTEPHDKKEDLLEPQEQLPPPPLPPPVSQVDAAIGLLMPPLQTPVNLSVFCDHNYTVEDTMHQRKRIHQLEQQVEKLRKKLKTAQQRCRRQERQLEKLKEVVHFQKEKHDVSERGYVILPNDYFEIVEVPA [D191H]: the THAP1 transcriptional activity turned out to be 0.987.

As to MVQSCSAYGCKNRYDKDKPVSFHKFPLTRPSLCKEWEAAVRRKNFKPTKYSSICSEHFTPDCFKRECNNKLLKENAVPTIFLCTEPHDKKEDLLEPQEQLPPPPLPPPVSQVDAAIGLLMPPLQTPVNLSVFCDHNYTVEDTMHQRKRIHQLEQQVEKLRKKLKTAQQRCRRQERQLEKLKEVVHFQKTKDDVSERGYVILPNDYFEIVEVPA [E189T], the THAP1 transcriptional activity was 1.08.

With MVQSCSAYGCKNRYDKDKPVSFHKFPLTRPSLCKEWEAAVRRKNFKPTKYSSICSEHFTPDCFKRECNNKLLKENKVPTIFLCTEPHDKKEDLLEPQEQLPPPPLPPPVSQVDAAIGLLMPPLQTPVNLSVFCDHNYTVEDTMHQRKRIHQLEQQVEKLRKKLKTAQQRCRRQERQLEKLKEVVHFQKEKDDVSERGYVILPNDYFEIVEVPA [A76K], the THAP1 transcriptional activity is 0.428.

Take MVQSCSAYGCKNRYDKDKPVSFHKFPLTRPSLCKEWEAAVRRKNFKPTKYSSICSEHFTPDCFKRECNNKLLKENAVPTIFLCTEPHDKKEDLLEPQEQLPPPPLPPPVSQVDAAIGLLMPPLQTPVNLSVFCDHNYTEEDTMHQRKRIHQLEQQVEKLRKKLKTAQQRCRRQERQLEKLKEVVHFQKEKDDVSERGYVILPNDYFEIVEVPA [V139E]: the THAP1 transcriptional activity worked out at 0.369.

MVQSCSAYGCKNRYDKDKPVSFHKFPLTRPSLCKEWEAAVRRKNFKPTKYSSICSEHFTPDCFKRECNNKLNKENAVPTIFLCTEPHDKKEDLLEPQEQLPPPPLPPPVSQVDAAIGLLMPPLQTPVNLSVFCDHNYTVEDTMHQRKRIHQLEQQVEKLRKKLKTAQQRCRRQERQLEKLKEVVHFQKEKDDVSERGYVILPNDYFEIVEVPA [L72N]: the THAP1 transcriptional activity was 0.129.

For the variant MVQSCSAYGCKNRYDKDKPVSFHKFPLTRPSLCKEWEAAVRRKNFKPTKYSSICSEHFTPDCFKRECNNKLLKENAVPTIFLCTEPHDKKEDLLEPQEQLPPLPLPPPVSQVDAAIGLLMPPLQTPVNLSVFCDHNYTVEDTMHQRKRIHQLEQQVEKLRKKLKTAQQRCRRQERQLEKLKEVVHFQKEKDDVSERGYVILPNDYFEIVEVPA [P103L], the THAP1 transcriptional activity stood at 1.61.

As to MVQSCSAYGCKNRYDKDKPVSFHKFPLTRPSLCKEWEAAVRRKNFKPTKYSSICSEHFTPDCFKRECNNKLLKENAVPTIFLCTEPHDKKEDLLEPQEQLPPPPLPPPVSQVDAAIGLLMPPLQTPVNLSVFCDHNYTVEDTMHQRKRIHQLEQQVEKLRKKLKTAQQRCRRQERQLEKLKEVVHPQKEKDDVSERGYVILPNDYFEIVEVPA [F186P], the THAP1 transcriptional activity stood at 1.48.
